Test: yeast display, Sf9 membrane polyspecificity reagent, FACS + sequencing; frameworks hold sequencing errors
Outline: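 Sorting gates, low and high (top ~1%), were placed on anti-HA fluorescence to track expression and on streptavidin fluorescence to track reagent binding. A clone's polyreactivity label is taken from the gate it came out of. The reagent was 10% biotinylated, detergent-solubilized Sf9 membrane, applied for 1 hour at 4 °C to galactose-induced yeast display cells.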

Sequence | polyreactivity (PSR sort gate)
QVQLVESGGGLVQAGGSLRLSCAASGRIFADYAMGWYRQAPGKERELVADIRQSGGRTYYADSVKGRFTISRDNAKNTVYLQMNSLNPEDTAVYYCATDYGSWGDYSGKYDYWGQGTQVTVSS | low polyreactivity
QVQLEESAGGLVQAGGSLRLSCAASGSIFFFYAKGRYREAPGKERELVAAITGSGGSTYYADSVKGRFTISRVNAKNTVYLQMNSLKPEDTAVYDCAFRTSRQVYSYAGYESWGQGTHVTVSS | low polyreactivity
QVQLVESGGGLVQAGGSLRLSCAASGSIFTQYTMGWYRQAPGKERELVAAISRSGGRTYYADSVKGRFTISRDIAKNTVYLQMNSLKPEDTAVYYCAAEYTDKYEYWGQGTQVTVSS | high polyreactivity
QVQLVESGGGLVQAGGSLRLSCAASGLTFYGYGMGWYRQAPGKERELVASITSGGNTYYADSVKGRFTISRDNAKNTVYLQMNSLKPEDTAVYYCAVTAIALYYSSGYYWGQGTQVTVSS | low polyreactivity
QVQLVESGGGLVQAGGSLRLSCAASGRILPVYAMGWYRQAPGKERELVAAINDSGTNTNYADSVKGRFTISRDNAKNTVYLHMNSLKPEDTAVYYCAASSGPRQGYSYRPHKSYGSWGQGTQVTVSS | low polyreactivity
QVQLVESGGGLVQAGGSLRLSCAASGSIFRYNAMGWYRQAPGKERELVAAISQSGGRTSYADSVKGRFTISRDNAKNTVYLQMNSLKPEDTAVYYCAKRAYGYRSIYRMDYWGQGTQVTVSS | high polyreactivity
QVQLVESGGGLVQAGGSLRLSCAASGSTFYVNAMGWYRQAPGKERELVAAINSGGRTYYADSVKGRFTISRDNAKNTVYLQMNSLKPEDTAVYYCAAEVSYYLNEFDYWGQGTQVTVSS | low polyreactivity
QVQLVESGGGLVQAGGSLRLSCAASGFTFRQYSMGWYRQARGKERELVAGISSSGGSTRYADSVKGRFTISRDNAKNTVYFQMNSLKPEDTAVYYCAARIASHHYYYWGQVTQVTVSS | high polyreactivity
QVQLVESGGGLVQAGGSLRLSCAPSGSILWQYAMGWYRQAPGKERELVAAITYSGGSTHYADSVKGRFTISRDNAKNTVYLQMNSLKPEETAVYYCAAGYWYRYAALRYDHWGQGTQVTVSS | low polyreactivity
QVQLVESGGGLVQAGGSLRLSCAASGSTFTNYAMGWYRQAPGKERELLAAINNDRTNYADSVKGRFTISRDNAMNTVYLQMNSLKPEDTAVYYCAARLGGRRRFGYWGQGTQVTVSS | high polyreactivity
QVQLVESVGGLVQAGGSLRLSCAASVNIFITNAMGWYRQAPGKERELVADISFSGGSTYYADSVKGRFTISRDTAKNTVYLQMNSLIPEDTAVYYCAARALASVSAHKYDYWGQGTQVTVSS | low polyreactivity
QVQLVESGGGLVQAGGSLRLICAASGFIFVWYAMGWYRQAPGKERELVAAISRRGGGTYYADSVKGRFTISRDNAKNTVYLQMNSLKPEDTAVYYCAAGSYYRYGYDFNYWGQGTQVTVSS | high polyreactivity
QVQLVESGGGLVQAGGSLRLSCAASGRTFVYYAKGWYIQAPGKERELVATISSSDSTNYAYSVKGRFTISRDNAKNTVYLQMNSLKPEDTAVYYCAGGPKGGGYYDPFDYWGQGTQVNVSS | low polyreactivity
QVQLVESGGGLVQAGGSLRLSCAASGFIFVYYAMGWYRQAPGKERELVAAISKRGGNTYYADSVKGRFTISRDNAKNTVYLQMNSLKPEDTAVYYCAADGPGHYYAELEYDYWGQGTQVTVSS | high polyreactivity
QVQLVESGGGLVQAGGSLRLSCAASGRTFYAYAMGWYRQAPGKERELVAAITKRDGITFYADSVKGRFTISRDNAKNTVYLQMNSLKPEDTAVYYCAATGYVGGIYGHYPRGYWGQGTQVTVSS | high polyreactivity
QVQLVESGGGLVQAGGSLRLSCAASGFTFYRNDMGWYRQAPGKEREFVAAITTSGGSTYYADSVKGRFTISRDNAKYTVYLQMNSLKPEDTAVYYCNAYGDGYWKTFGYWGQGTQVTVSS | high polyreactivity
QVQLVESGGGLVQAGGRLRLSCAASGSIFRSNVMGWYIQAPGKEREMVASITSGGITYADSVNGRFTISRDNAQNTVYLQMNSLKPEDTAVYYCDTVRRYAMSPYKGRYDYWGQGTQVTVSS | low polyreactivity
QVQLVESGGGLVQAGGSLRLSCAASGFTFQENAMGWYRQAHGKERELVAAISTSGDSTYYADSVKGRFTISRDNAKNTVYLQMNSLKPEDTAVYYCATAYEVLVACVLYDYWGKGTQVTVSS | low polyreactivity
QVQLVESGGGLVQAGGSLRLSCAASGNTLYQYAMGWYRQAPGKERELVASITWSGSSTYYADSVKGRFTISRDNAKNTDDLQMNSLKPEDPAVYYCAAVVYYTFDYCGQGTQVTVSS | low polyreactivity
QVQLVESGGGLVQAGGSLRLSCAASGRISVRIYAMGWYRQAPGKERELVAIISRSGGSTYYADSVKGRFTISRDNAKTTVYLQMNSLKPQDTAVYYCNARWSFSYTVWVASYWCLDDYWGQGTQVTVSS | high polyreactivity
QVQLVESGGGLVQAGGSLRLSCAASGSTFRWYAMGWYRQAPGKERELVAAIRYTGGSTYYADSVKGRFTISRDNAKNTVYLQMNSLKPEDTAVYYCNARTFRRYVSYSRTYVGYDYWGQGTQVTVSS | high polyreactivity
QVQLVESGGGLVQAGGSLSLSCAATGRIFGPYAMGWYRQAPGKERELVATINSGGSTHYADSVKGRFTISRDNAKNTVYLQMNSLKPEDTAVYYCAATSAYGRYRYYYWGQGTQVTVSS | high polyreactivity

Sequence | polyreactivity (PSR sort gate)
QVQLVESGGGLVQAGGSLRLSCAASGFTFYRYAMGSYRQAPGKERELFAAIRKSGGSTYYADSVKGRFTISRDNAKNTVYLLMNSMKAEDTAVYYCAKRYATDGFGYWGQGTQVTVSS | high polyreactivity
QVQLVESGGGLVQAGGSLRLSCAASGSIFYGYAMGWYRQAPGKERELVAAITWIDGSTYYADSVKGRFTISRDNAKNPVFLQLTSLKPEDTAVYYCAAGGYFYSFYYWGQGTQVTVSS | low polyreactivity
QVQLVESGGGLVQAGGSLRLSCAASGSTFGKYAMGWYRQAPGKERELVATITVSGGNTNYADSVKGRFTISRDNAKNTVYLQMNSLKPEDTAVYYCAARNYVAGHKYIMNYWGQGTQVNVSS | low polyreactivity
QDQLEESGGGLVQAGGSLRLSCAASGSTFLVYAMGWYRQAPGKEREFVAAISWSGGSTFYADSVKGRFTISRDNAKNTVYLQMNSLKPEDTAVYYCAARQAGYSGRKLYYWGQGTQVTVSS | low polyreactivity
QVQLVESGGGLVQAGGSLRLSCAASGRTFLIYAMGWYRQAPGKERELVAAINFSGGNTYYADSVKGRFTISRDNAKNTVYLQMNSLKPEDTAVYYCAARYRIGNNGYEYWGQGTQVTVSS | low polyreactivity
QVQLVESGGGLVQAGGSLRLSCAASGRTFFRNVMGWYRQAPGKERELVAGITWTGGTTYYADSVKGRFTISRDNAKNTVYLQMNSLKPEDTAVYYCATRNYAVVPSVRREGYYWGQGTQVTVSS | low polyreactivity
QVQHVESGGCLFQAGGILRLSCAASGIIFTYYDMGWYRQAPGKERELVAGIDYSGTSTYYADSVKGRFTISRDNAKNTVYLQMNSLKPEDTAVYYCAAVPVWVVYFSGEYYYWGQGTQVTVSS | high polyreactivity
QVQLVESGGGLVQAGRSLRLSCSASGFSFSFYSMGWYRQAPGKERELVAAISQSGGSTYYADSVKGRFIISLDNAKHTVYLQKNSLKPEDTAVYYCNRGLRRHQSDDYWGQGTQVTVSS | high polyreactivity
QVQLVESGGGLVQAAGSLRLSCAASGFTLTGNAMGWYRQATGKERELVAAISRNGGSTFYADSVKGRFTISRDNAKNTVFLQMNSLKPEDTAVYYCNASRYRHSAYKYDSWGQGTQVTVSS | high polyreactivity
QVQLVESGGGLGQAGGSLRLSCAASGIIFQYYAMGWYRPAPGKERELVAVISSSGTNTYYADSVKGRFTISRDNAKNTVYLQMNSLKPEDTAVYYCNKVYRWFTRFDYWGQGTQVTVSS | high polyreactivity
QVQLVESGGGLVQAGGSLRLSCAASGFTFYLYTMAWYRQAPGKERELVATITSDGGTNYADSVKGRFTISRDNAKNTVYLQMNSLKPEDTAVYYCARTARRRYQPYEYWGQGTQVTVSS | low polyreactivity
QVQHVESGGGLVQAGGSLRLSCAASGSTFRPYAMGWYRQAPGKERELVARITVSGDSTYYADSVKGRFTISRDNAKNTVYLQMNSLKPEDTAVYYCAREFDYSLSGFDYWGQGTQVTVSS | low polyreactivity
QVQLVESGGGLVQAGGSLRLSCAASGSIFGGNAMGWYRQAPGKERELVATITDRGSSTYYADSVKGRFTISRDNAKNTVYLQMNSLKPEDTAVYYCATAFPDVPEPDYWGQGAQVTVSS | low polyreactivity
QVQLVESGGGLVQAGGSLRLSCAASGSIFRGNAMGWYRQAPGKERELVAAISWSGASTYYADSVKGRFTISRDNAKNTVYLQMNSLKPEDTAVYYCAAVQWTGYPFDYWGQGTQVTVSS | high polyreactivity
QVQLVESGGGLVQAGGSLRLSCAASGSIFRTYTMGWYRQAPGKEREFVAAISRSGGSTYYADSVKGRFTISRDNAKNTVYLQMNSLKPEDTAVYYCNARCGLGSYGYWGQGTQVTVSS | high polyreactivity
QDQLVESRGGLVQAGGSLRLSCAASGRTFYINAMGWYRQAPGKERELVAAISWGGGRTYYADSVKGRFTISRDNAKNTVYLQMNSLKPEDTAVYYCAAEVAYYKYDYWGQGTQVTVSS | high polyreactivity
QVQLVESGGGLVQAGGSLRLSCAASGSIFNAYVMGWYRQAPGKERELVAAISRSGGRTYYADSVKGRFTISRDNATNTVYLQMNCLKPEDTAVYYCAAGYRYNYWGQGSQVTVSS | high polyreactivity
QVQLVESGGGLVQAGGSLRLSCAASGRISYTYSAMGWYRQAPGKERELVAAITRRGGSTSYADSVKGRFTISRDNAKNTVYLQMNSLKPDDTAVYYCAAVGSFHIVDYWGQGTQVTVSS | high polyreactivity
QVQLVESGGGLVQAGGSLSLSCAASGFIFPRYTMGWYRQAPGKERELVAAMTSSGGTNYADSVKGRFTISRDNAKNTVYLQMNSLKPEDTAVYYCAARRRTQQGYGGGYWGQGTQVTVSS | high polyreactivity
QVQLVESGGGLVQAGGSLRLSCAASGSIFWPYAMGWYRQAPGKERELVAAISSSGTSTYYADSVKGRFTISRDNAKNTVYLQMNSLKPEDTAVYYCAKELFTYPYEYWGQGTQVTVSS | low polyreactivity
QVQLVESGGGLVQAGGSLRLSCAASGSIFSKYVMGWYRQAPGKQTELVAAISWSGTRTYYADSVKGRFTISRDNAKNTVYLQMNSLKPEDTAVYYCAALRLYAGHQYDYWGQGTQVTVSS | high polyreactivity
